Target: T1, 2-Quinolinylcarbonyl-L-Valinyl-L-Aspartyl (methyl ester)-L-Valinyl-L-Alanyl-L-Aspartyl (methyl ester) 2,6-difluorophenyl ester
T1 chain: VDVAD

B1: human recombinant caspase-4 (protein)
chain: QISPNKKAHPNMEAGPPESGESTDALKLCPHEEFLRLCKERAEEIYPIKERNNRTRLALIICNTEFDHLPPRNGADFDITGMKELLEGLDYSVDVEENLTARDMESALRAFATRPEHKSSDSTFLVLMSHGILEGICGTVHDEKKPDVLLYDTIFQIFNNRNCLSLKDKPKVIIVQACRGANRGELWVRDSPASLEVASSQSSENLEEDAVYKTHVEKDFIAFCSSTPHNVSWRDSTMGSIFITQLITCFQKYSWCCHLEEVFRKVQQSFETPRAKAQMPTIERLSMTRYFYLFPGN
- in vitro cleavage of Ac-WEHD-AMC by the recombinant caspase: no cross reactivity against other caspases

B2: human recombinant caspase-5 (protein)
chain: DQKITSVKPLLQIEAGPPESAESTNILKLCPREEFLRLCKKNHDEIYPIKKREDRRRLALIICNTKFDHLPARNGAHYDIVGMKRLLQGLGYTVVDEKNLTARDMESVLRAFAARPEHKSSDSTFLVLMSHGILEGICGTAHKKKKPDVLLYDTIFQIFNNRNCLSLKDKPKVIIVQACRGEKHGELWVRDSPASLALISSQSSENLEADSVCKIHEEKDFIAFCSSTPHNVSWRDRTRGSIFITELITCFQKYSCCCHLMEIFRKVQKSFEVPQAKAQMPTIERATLTRDFYLFPGN
- in vitro cleavage of Ac-WEHD-AMC by the recombinant caspase: no cross reactivity against other caspases

B3: human recombinant caspase-7 (protein)
chain: AKPDRSSFVPSLFSKKKKNVTMRSIKTTRDRVPTYQYNMNFEKLGKCIIINNKNFDKVTGMGVRNGTDKDAEALFKCFRSLGFDVIVYNDCSCAKMQDLLKKASEEDHTNAACFACILLSHGEENVIYGKDGVTPIKDLTAHFRGDRCKTLLEKPKLFFIQACRGTELDDGIQADSGPINDTDANPRYKIPVEADFLFAYSTVPGYYSWRSPGRGSWFVQALCSILEEHGKDLEIMQILTRVNDRVARHFESQSDDPHFHEKKQIPCVVSMLTKELYFSQ
- in vitro cleavage of Ac-DEVD-AMC by the recombinant caspase: no cross reactivity against other caspases

B4: human recombinant caspase-3 (protein)
chain: SGISLDNSYKMDYPEMGLCIIINNKNFHKSTGMTSRSGTDVDAANLRETFRNLKYEVRNKNDLTREEIVELMRDVSKEDHSKRSSFVCVLLSHGEEGIIFGTNGPVDLKKITNFFRGDRCRSLTGKPKLFIIQACRGTELDCGIETDSGVDDDMACHKIPVEADFLYAYSTAPGYYSWRNSKDGSWFIQSLCAMLKQYADKLEFMHILTRVNRKVATEFESFSFDATFHAKKQIPCIVSMLTKELYFYH
- in vitro cleavage of Ac-DEVD-AMC by the recombinant caspase: no cross reactivity against other caspases

B5: human recombinant caspase-9 (protein)
chain: MDEADRRLLRRCRLRLVEELQVDQLWDALLSRELFRPHMIEDIQRAGSGSRRDQARQLIIDLETRGSQALPLFISCLEDTGQDMLASFLRTNRQAAKLSKPTLENLTPVVLRPEIRKPEVLRPETPRPVDIGSGGFGDVGALESLRGNADLAYILSMEPCGHCLIINNVNFCRESGLRTRTGSNIDCEKLRRRFSSLHFMVEVKGDLTAKKMVLALLELAQQDHGALDCCVVVILSHGCQASHLQFPGAVYGTDGCPVSVEKIVNIFNGTSCPSLGGKPKLFFIQACGGEQKDHGFEVASTSPEDESPGSNPEPDATPFQEGLRTFDQLDAISSLPTPSDIFVSYSTFPGFVSWRDPKSGSWYVETLDDIFEQWAHSEDLQSLLLRVANAVSVKGIYKQMPGCFNFLRKKLFFKTS
- in vitro cleavage of Ac-LEHD-AMC by the recombinant caspase: no cross reactivity against other caspases

B6: human recombinant caspase-10 (protein)
chain: VKTFLEALPQESWQNKHAGSNGNRATNGAPSLVSRGMQGASANTLNSETSTKRAAVYRMNRNHRGLCVIVNNHSFTSLKDRQGTHKDAEILSHVFQWLGFTVHIHNNVTKVEMEMVLQKQKCNPAHADGDCFVFCILTHGRFGAVYSSDEALIPIREIMSHFTALQCPRLAEKPKLFFIQACQGEEIQPSVSIEADALNPEQAPTSLQDSIPAEADFLLGLATVPGYVSFRHVEEGSWYIQSLCNHLKKLVPRMLKFLEKTMEIRGRKRTVWGAKQISATSLPTAISAQTPRPPMRRWSSVS
- in vitro cleavage of Ac-IETD-AMC by the recombinant caspase: no cross reactivity against other caspases

B7: human recombinant caspase-6 (protein)
chain: AFYKREMFDPAEKYKMDHRRRGIALIFNHERFFWHLTLPERRGTCADRDNLTRRFSDLGFEVKCFNDLKAEELLLKIHEVSTVSHADADCFVCVFLSHGEGNHIYAYDAKIEIQTLTGLFKGDKCHSLVGKPKIFIIQACRGNQHDVPVIPLDVVDNQTEKLDTNITEVDAASVYTLPAGADFLMCYSVAEGYYSHRETVNGSWYIQDLCEMLGKYGSSLEFTELLTLVNRKVSQRRVDFCKDPSAIGKKQVPCFASMLTKKLHFFPKSN
- in vitro cleavage of Ac-VEID-AMC by the recombinant caspase: no cross reactivity against other caspases

B8: caspase-2 in brain of ischemic rat pups (protein)
chain: GPPCLQVKPCTPEFYQAHYQLAYRLQSQPRGLALVMSNVHFTGEKDLEFRSGGDVDHTTLVTLFKLLGYNVHVLYDQTAQEMQEKLQNFAQLPAHRVTDSCIVALLSHGVEGGIYGVDGKLLQLQEVFRLFDNANCPSLQNKPKMFFIQACRGDETDRGVDQQDGKNHAQSPGCEESDAGKEELMKMRLPTRSDMICGYACLKGNAAMRNTKRGSWYIEALTQVFSERACDMHVADMLVKVNALIKEREGYAPGTEFHRCKEMSEYCSTLCQQLYLFPGYPPT
- caspase-2 activity (VDVAD-AMC cleavage) and caspase-2 processing (western blot) in brain homogenates: it inhibited caspase-2 activity as well as caspase-2 processing in brain of ischemic rat pups

B9: human recombinant caspase-8 (protein)
chain: SESQTLDKVYQMKSKPRGYCLIINNHNFAKAREKVPKLHSIRDRNGTHLDAGALTTTFEELHFEIKPHDDCTVEQIYEILKIYQLMDHSNMDCFICCILSHGDKGIIYGTDGQEAPIYELTSQFTGLKCPSLAGKPKVFFIQACQGDNYQKGIPVETDSEEQPYLEMDLSSPQTRYIPDEADFLLGMATVNNCVSYRNPAEGTWYIQSLCQSLRERCPRGDDILTILTEVNYEVSNKDDKKNMGKQMPQPTFTLRKKLVFPSD
- in vitro cleavage of Ac-IETD-AMC by the recombinant caspase: no cross reactivity against other caspases

B10: human recombinant caspase-1 (protein)
chain: NPAMPTSSGSEGNVKLCSLEEAQRIWKQKSAEIYPIMDKSSRTRLALIICNEEFDSIPRRTGAEVDITGMTMLLQNLGYSVDVKKNLTASDMTTELEAFAHRPEHKTSDSTFLVFMSHGIREGICGKKHSEQVPDILQLNAIFNMLNTKNCPSLKDKPKVIIIQACRGDSPGVVWFKDSVGVSGNLSLPTTEEFEDDAIKKAHIEKDFIAFCSSTPDNVSWRHPTMGSVFIGRLIEHMQEYACSCDVEEIFRKVRFSFEQPDGRAQMPTTERVTLTRCFYLFPGH
- in vitro cleavage of Ac-YVAD-AMC by the recombinant caspase: no cross reactivity against other caspases
